We go through one molecule from publication PMC6827488 (ACS infectious diseases, 2019).

In this assay the target is maltose-binding protein (MBP)-tagged mVP35 IID (Marburg virus, UniProt P35259). As to the kind of experiment: pull-down.
Chain of maltose-binding protein (MBP)-tagged mVP35 IID (P35259 200-329): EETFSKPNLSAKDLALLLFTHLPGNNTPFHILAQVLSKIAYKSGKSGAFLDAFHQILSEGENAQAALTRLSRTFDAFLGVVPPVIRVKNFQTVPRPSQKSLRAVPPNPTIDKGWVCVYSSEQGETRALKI

B1: synthetic antigen-binding fragment sFab H3 (Fab, V domains shown)
VH: EVQLVESGGGLVQPGGSLRLSCAASGFNISYYYIHWVRQAPGKGLEWVASIYPYYGYTSYADSVKGRFTISADTSKNTAYLQMNSLRAEDTAVYYCARGSSWYGAHAFDYWGQGTLVTVSS
VL: DIQMTQSPSSLSASVGDRVTITCRASQSVSSAVAWYQQKPGKAPKLLIYSASSLYSGVPSRFSGSRSGTDFTLTISSLQPEDFATYYCQQGYYYAYSLITFGQGTKVEIK
In the case of B1, the binding result is given as “binds”.
